Measurements taken from paper PMC7968844.

Legend:
[1] = FLAG pulldown, MS peptide reads; details: glycan lost; control: MCF7-WT cells
[2] = CHX chase, Western blot, endogenous ERα; details: glycan lost; control: MCF7-WT cells, empty vector
[3] = CHX chase, Western blot, MCF7-WT cells; details: glycan lost; control: ERα-WT in MCF7-WT cells
[4] = CHX chase, Western blot, GREB1-KO cells; details: glycan lost; control: ERα-WT in GREB1-KO cells
[5] = Western blot of ERα after GREB1 reconstitution; details: glycan gained; control: GREB1-KO cells + Vec

B1: ERα (estrogen receptor α): GREB1-KO (protein)
parent chain: MTMTLHTKASGMALLHQIQGNELEPLNRPQLKIPLERPLGEVYLDSSKPAVYNYPEGAAYEFNAAAAANAQVYGQTGLPYGPGSEAAAFGSNGLGGFPPLNSVSPSPLMLLHPPPQLSPFLQPHGQQVPYYLENEPSGYTVREAGPPAFYRPNSDNRRQGGRERLASTNDKGSMAMESAKETRYCAVCNDYASGYHYGVWSCEGCKAFFKRSIQGHNDYMCPATNQCTIDKNRRKSCQACRLRKCYEVGMMKGGIRKDRRGGRMLKHKRQRDDGEGRGEVGSAGDMRAANLWPSPLMIKRSKKNSLALSLTADQMVSALLDAEPPILYSEYDPTRPFSEASMMGLLTNLADRELVHMINWAKRVPGFVDLTLHDQVHLLECAWLEILMIGLVWRSMEHPGKLLFAPNLLLDRNQGKCVEGMVEIFDMLLATSSRFRMMNLQGEEFVCLKSIILLNSGVYTFLSSTLKSLEEKDHIHRVLDKITDTLIHLMAKAGLTLQQQHQRLAQLLLILSHIRHMSNKGMEHLYSMKCKNVVPLYDLLLEMLDAHRLHAPTSRGGASVEETDQSHLATAGSTSSHSLQKYYITGEAEGFPATV
other: ubiquitin associated with ERα [1]: increases
degradation_or_half_life [2]: decreases

B2: ERα (estrogen receptor α): ERα-2M (protein)
parent chain: MTMTLHTKASGMALLHQIQGNELEPLNRPQLKIPLERPLGEVYLDSSKPAVYNYPEGAAYEFNAAAAANAQVYGQTGLPYGPGSEAAAFGSNGLGGFPPLNSVSPSPLMLLHPPPQLSPFLQPHGQQVPYYLENEPSGYTVREAGPPAFYRPNSDNRRQGGRERLASTNDKGSMAMESAKETRYCAVCNDYASGYHYGVWSCEGCKAFFKRSIQGHNDYMCPATNQCTIDKNRRKSCQACRLRKCYEVGMMKGGIRKDRRGGRMLKHKRQRDDGEGRGEVGSAGDMRAANLWPSPLMIKRSKKNSLALSLTADQMVSALLDAEPPILYSEYDPTRPFSEASMMGLLTNLADRELVHMINWAKRVPGFVDLTLHDQVHLLECAWLEILMIGLVWRSMEHPGKLLFAPNLLLDRNQGKCVEGMVEIFDMLLATSSRFRMMNLQGEEFVCLKSIILLNSGVYTFLSSTLKSLEEKDHIHRVLDKITDTLIHLMAKAGLTLQQQHQRLAQLLLILSHIRHMSNKGMEHLYSMKCKNVVPLYDLLLEMLDAHRLHAPTSRGGASVEETDQSHLATAGSTSSHSLQKYYITGEAEGFPATV
degradation_or_half_life [3]: decreases
degradation_or_half_life [4]: no change

B3: ERα (estrogen receptor α): GT-WT (protein)
parent chain: MTMTLHTKASGMALLHQIQGNELEPLNRPQLKIPLERPLGEVYLDSSKPAVYNYPEGAAYEFNAAAAANAQVYGQTGLPYGPGSEAAAFGSNGLGGFPPLNSVSPSPLMLLHPPPQLSPFLQPHGQQVPYYLENEPSGYTVREAGPPAFYRPNSDNRRQGGRERLASTNDKGSMAMESAKETRYCAVCNDYASGYHYGVWSCEGCKAFFKRSIQGHNDYMCPATNQCTIDKNRRKSCQACRLRKCYEVGMMKGGIRKDRRGGRMLKHKRQRDDGEGRGEVGSAGDMRAANLWPSPLMIKRSKKNSLALSLTADQMVSALLDAEPPILYSEYDPTRPFSEASMMGLLTNLADRELVHMINWAKRVPGFVDLTLHDQVHLLECAWLEILMIGLVWRSMEHPGKLLFAPNLLLDRNQGKCVEGMVEIFDMLLATSSRFRMMNLQGEEFVCLKSIILLNSGVYTFLSSTLKSLEEKDHIHRVLDKITDTLIHLMAKAGLTLQQQHQRLAQLLLILSHIRHMSNKGMEHLYSMKCKNVVPLYDLLLEMLDAHRLHAPTSRGGASVEETDQSHLATAGSTSSHSLQKYYITGEAEGFPATV
expression_or_secretion [5]: increases
